# Laboratory results as given in article PMC3213119.
# Target: TssM-ekto (periplasmic domain of TssM, 386-1129), after TEV cleavage (enteroaggregative Escherichia coli strain 17-2)
# Experiment: SEC-MALS; MALS/QELS/UV/RI of the TssM-ekto/TssJ complex; 10 mM HEPES pH 7.5, 150 mM NaCl
substance,measurement,value
"TssJ (enteroaggregative E. coli Sci1 T6SS), residues 2-155 of the processed lipoprotein, fusion and tag cleaved (domain or fragment)",stoichiometry N,1
